From publication PMC5457145 (Science Advances, 2017)
Where a chain is given by its changes, count along the chain named. Names may count otherwise. Blank lines part the entries; values can stand above or below the binder they belong to. Ends that are not written are not given here.

What was measured:
His6Sumo-tagged TPR2 TPD [1] = target: T1, His6Sumo-tagged TPR2 TPD (rice, UniProt Q5NBT9 1-209); assay: AlphaScreen or HTRF
T1 sequence (looked up): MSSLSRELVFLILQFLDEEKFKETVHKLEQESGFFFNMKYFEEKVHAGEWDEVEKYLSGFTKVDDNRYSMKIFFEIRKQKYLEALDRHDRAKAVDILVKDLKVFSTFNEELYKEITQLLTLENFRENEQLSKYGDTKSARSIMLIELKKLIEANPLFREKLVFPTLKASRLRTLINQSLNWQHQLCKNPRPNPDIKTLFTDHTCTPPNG

crystal structure = target: the molecule itself; assay: crystal structure
[2] = target: T2, His6Sumo-TPR2 TPD N176H/Y68A (rice, UniProt Q5NBT9 1-209, N176H | Y68A); assay: AlphaScreen or HTRF
T2 sequence (looked up): T1 sequence (looked up) with Y68A, N176H

His6Sumo-TPR2 TPD L198A = target: T3, His6Sumo-TPR2 TPD L198A (rice, UniProt Q5NBT9 1-209, L198A); assay: AlphaScreen or HTRF
T3 sequence (looked up): T1 sequence (looked up) with L198A

His6Sumo-TPR2 TPD N180A = target: T4, His6Sumo-TPR2 TPD N180A (rice, UniProt Q5NBT9 1-209, N180A); assay: AlphaScreen or HTRF
T4 sequence (looked up): T1 sequence (looked up) with N180A

[3] = target: T5, His6Sumo-TPR2 TPD N176H/Y68R (rice, UniProt Q5NBT9 1-209, N176H | Y68R); assay: AlphaScreen or HTRF
T5 sequence (looked up): T1 sequence (looked up) with Y68R, N176H

[4] = target: T6, His6Sumo-TPR2 TPD L111A/L130A (rice, UniProt Q5NBT9 1-209, L111A | L130A); assay: AlphaScreen or HTRF
T6 sequence (looked up): T1 sequence (looked up) with L111A, L130A

His6Sumo-tagged TPR2 TPD [5] = target: T1, His6Sumo-tagged TPR2 TPD; assay: AlphaScreen or HTRF; remark: listed apart in the source
His6Sumo-TPR2 TPD W181A = target: T7, His6Sumo-TPR2 TPD W181A (rice, UniProt Q5NBT9 1-209, W181A); assay: AlphaScreen or HTRF
T7 sequence (looked up): T1 sequence (looked up) with W181A

[6] = target: T8, His6Sumo-TPR2 TPD N176H/K71A (rice, UniProt Q5NBT9 1-209, N176H | K71A); assay: AlphaScreen or HTRF
T8 sequence (looked up): T1 sequence (looked up) with K71A, N176H

[7] = target: T9, His6Sumo-TPR2 TPD N176H/R67A (rice, UniProt Q5NBT9 1-209, N176H | R67A); assay: AlphaScreen or HTRF
T9 sequence (looked up): T1 sequence (looked up) with R67A, N176H

[8] = target: T10, His6Sumo-TPR2 TPD L179A/I195A (rice, UniProt Q5NBT9 1-209, L179A | I195A); assay: AlphaScreen or HTRF
T10 sequence (looked up): T1 sequence (looked up) with L179A, I195A

Binder: DNLIYADLNLQ (peptide, UniProt Q2RBP2 794-804, looked up) [D53 EAR-2 peptide L799A]
IC50 (His6Sumo-tagged TPR2 TPD [1]): 14.3 µM

B1: TPR2 TPD, TPR2(1–209), untagged (domain or fragment, rice, UniProt Q5NBT9 1-209, looked up)
chain: T1 sequence (looked up)
stoichiometry N (crystal structure): 4

B2: TPR2 TPD L111A/L130A, untagged (domain or fragment, rice, UniProt Q5NBT9 1-209, looked up)
chain: T1 sequence (looked up) with L111A, L130A
binding result (crystal structure): binds

Now from value to binder:

fold increase of the strength of the interaction against wild-type EAR-2 (His6Sumo-tagged TPR2 TPD [1]): > 3 fold
Binder: DNLIYLDLNLA (peptide, UniProt Q2RBP2 794-804, looked up) [D53 EAR-2 peptide Q804A]

binding result [2]: binds
binding result (His6Sumo-TPR2 TPD L198A): binds
binding result (His6Sumo-TPR2 TPD N180A): binds
binding result [3]: binds
binding result [4]: binds
binding result (His6Sumo-tagged TPR2 TPD [5]): binds
binding result (His6Sumo-TPR2 TPD W181A): binds
binding result [6]: binds
binding result [7]: binds
binding result [8]: binds
Binder: DNLIYLDLNLQDWDD (peptide, UniProt Q2RBP2 794-808, looked up, also: biotinylated, site not given here) [Biotinylated D53 EAR-2 peptide, D53(794–808)]
